Results: patent publication US20100190682A1, “USE OF PROTEIN HYDROLYSATES TO STABILIZE METALLOPROTEASE DETERGENT FORMULATIONS” (priority 2007, published 2010)

Key:
NprE = target: T1, NprE (Bacillus amyloliquefaciens, UniProt P06832); assay: Remaining AGLA activity of NprE stability assay samples in DW-CT HDL detergent formulation; format: biochemical; conditions: no inhibitor; 2 mg/mL NprE incubated in HDL detergent formulation DW-CT, 32° C.
T1 construct: made in house; host or cells: Bacillus subtilis
Description: The HDL detergent formulation used in this example was: DW-CT. This formulation has a 37% water content and was designed to make up to 90% by volume with 10% room (by volume) to add ingredients such as stabilizers or enzymes.
Assays were carried out using a 10% DW-CT detergent formulation made by mixing 5 mL of DW-CT (prepared as in Table 1), 1 mL of 500 mM HEPES at pH 8.0, and 44 mL distilled water.
Stability assay samples were prepared using five different candidate protein hydrolysates, as well as a control with no inhibitor added.
In general, 20 μL of inhibitor stock solution was pre-mixed with 10 μL of 50 mg/mL NprE stock solution. Then, 220 μL of 10% DW-CT detergent formulation in 10 mM HEPES was added to each sample so that the final NprE concentration was 2 mg/mL. Samples were incubated at 32° C. in a microtiter plate in a Thermomixer (Eppendorf).
The final concentration of enzyme in each sample was 2 mg/mL NprE. The final inhibitor concentrations in their respective samples were: 5.6 mg/mL of Amisoy, Amicase, HyPep 4601, or Proteose Peptone, respectively; or 7.2 mM of the casein hydrolysis product mixture (based on 12.5-fold dilution). […]
Remaining NprE activity of each of stability assay samples (prepared as above) was measured at various time points using the general AGLA activity assay except that the assay solution used was 50 mM MES, 2.5 mM CaCl2, 0.005% Tween 80 at pH 6.5.

[1] = NprE stability at different storage concentrations (AGLA activity over time); format: physicochemical
Description: Samples were prepared containing the neutral metalloprotease, NprE, at a range of concentrations from 625 to 10000 ppm in 10 mM HEPES (N-(2-Hydroxyethyl)piperazine-N′-(2-ethanesulfonic acid)) buffer at pH 8.0. All samples, except the one control at 625 ppm NprE concentration, included 10% PPG and 0.5 mM CaCl2. All samples were incubated at a temperature of 32° C. over a period of 6 hours. NprE activity of the samples was measured using the AGLA activity assay at various time points.

[2] = in the presence of zinc ion concentrations lower than 15 mM; cited from earlier work

T1 sequence (P06832 222-521): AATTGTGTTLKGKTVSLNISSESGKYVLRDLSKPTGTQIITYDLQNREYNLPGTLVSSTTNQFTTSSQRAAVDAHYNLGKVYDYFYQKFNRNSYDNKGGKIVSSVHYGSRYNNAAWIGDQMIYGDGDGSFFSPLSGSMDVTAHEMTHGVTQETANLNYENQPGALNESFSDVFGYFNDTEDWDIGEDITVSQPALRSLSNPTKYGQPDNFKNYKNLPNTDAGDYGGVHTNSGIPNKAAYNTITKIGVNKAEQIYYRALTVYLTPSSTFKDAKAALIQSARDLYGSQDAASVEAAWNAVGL

With “NprE: recombinant neutral metalloprotease: Bacillus amyloliquefaciens neutral metalloprotease cloned into Bacillus subtilis” the “loss of original NprE activity in about an hour” value (NprE) was “more than 80%”, the “NprE activity maintained for 1.5 hours” value ([1]; 10,000 μg/mL (or ppm) NprE, 10% PPG, 0.5 mM CaCl2, 10 mM HEPES pH 8.0, 32° C.) was “almost full activity” and the “NprE activity at 1.5 hr” value ([1]; 625, 1250 and 2500 ppm NprE, 10% PPG, 0.5 mM CaCl2, 10 mM HEPES pH 8.0, 32° C.) was ~60%. The “NprE activity over time, control sample” value ([1]; 625 ppm NprE, no added PPG or CaCl2, 10 mM HEPES pH 8.0, 32° C.) was “lost nearly all of its activity within the first 2 hours” and the “stability period under detergent formulation conditions” value [2] was “approximately 4 weeks”.
